Test results: patent publication US20220202704A1, “PHARMACEUTICAL PARENTERAL COMPOSITION OF DUAL GLP1/2 AGONIST” (Zealand Pharma A/S, priority 2019, published 2022)
*1 amine or outer side, *2 acyl side, *3 side chain or, on linkers, in order; H or OH if unused. Where no end group is shown, it is not given here. Side-chain parts run from the residue outwards. [ ]: non-standard residue; d: D form. The star is where a group is joined. C18 diacid = O=C(O)CCCCCCCCCCCCCCCCC(=O)*; γGlu = O=C(O)[C@H](CCC(=O)[*:2])N[*:1]; Aib = CC(C)(N)C(=O)O

Assay: Physical stability via ThT, fibril formation (ASSAY IVc)
Assay type: physicochemical
Parameters: key to Aggregation (fibrillation, ThT): FD = Fibrillation Detected; FND = Fibrillation Not Detected
Conditions: for Aggregation (fibrillation, ThT): 40° C. 4 days
Procedure: Samples were prepared in a total volume of 0.5 mL API (herein e.g. CPD1) stock solutions were prepared by dissolving API in demineralised water at ambient temperature (typically 25° C.) to achieve 5 and 25 mg/mL API, respectively. 8 working solutions were prepared: 1) 40 mM phosphate pH 6 and 80 μM ThT; 2) 40 mM phosphate pH 6.5 and 80 μM ThT; 3) 40 mM phosphate pH 7 and 80 μM ThT; 4) 40 mM phosphate pH 8 and 80 μM ThT; 5) 40 mM phosphate pH 6, 540 mM mannitol and 80 μM ThT; 6) 40 mM phosphate pH 6.5, 540 mM mannitol and 80 μM ThT; 7) 40 mM phosphate pH 7, 540 mM mannitol and 80 μM ThT; and 8) 40 mM phosphate pH 8, 540 mM mannitol and 80 μM ThT.
200 μL of API stock was mixed with 250 μL working solution, pH was measured and adjusted to target, followed by adding demineralised water to a final volume of 500 μL. Samples were loaded in a 96-well black fluorescence plate (clear bottom) in triplicate 3×150 μL. Data were collected at fixed intervals of 10 min, each preceded by 300 s of automixing (agitation), over a period of 96 hours at 40° C. Physical stability, expressed as lag-time of fibril formation (in hours), was defined as the intersection between two linear regressions representing the initial stable phase and the growth phase.

Which results are given for “CPD1: any form of the compound comprising SEQ ID NO: 1 (CPD1OH or CPD1NH2 and any pharmaceutically acceptable salt thereof) (H-H[Aib]EGSFTSELATILDK([γGlu-C18 diacid])QAARDFIAWLIQHKITD; also: C-terminal acid or amide, both forms, salts)”?
Aggregation (fibrillation, ThT) (2 mg/mL CPD1, 20 mM phosphate pH 6, 270 mM mannitol): FD; Aggregation (fibrillation, ThT) (2 mg/mL CPD1, 20 mM phosphate pH 6, no added tonicity agent): FD; Aggregation (fibrillation, ThT) (2 mg/mL CPD1, 20 mM phosphate pH 6.5, 270 mM mannitol): FND; Aggregation (fibrillation, ThT) (2 mg/mL CPD1, 20 mM phosphate pH 6.5, no added tonicity agent): FND; Aggregation (fibrillation, ThT) (2 mg/mL CPD1, 20 mM phosphate pH 7, 270 mM mannitol): FND; Aggregation (fibrillation, ThT) (2 mg/mL CPD1, 20 mM phosphate pH 7, no added tonicity agent): FND; Aggregation (fibrillation, ThT) (2 mg/mL CPD1, 20 mM phosphate pH 8, 270 mM mannitol): FND; Aggregation (fibrillation, ThT) (2 mg/mL CPD1, 20 mM phosphate pH 8, no added tonicity agent): FND; Aggregation (fibrillation, ThT) (10 mg/mL CPD1, 20 mM phosphate pH 6, 270 mM mannitol): FD; Aggregation (fibrillation, ThT) (10 mg/mL CPD1, 20 mM phosphate pH 6, no added tonicity agent): FD; Aggregation (fibrillation, ThT) (10 mg/mL CPD1, 20 mM phosphate pH 6.5, 270 mM mannitol): FND; Aggregation (fibrillation, ThT) (10 mg/mL CPD1, 20 mM phosphate pH 6.5, no added tonicity agent): FND; Aggregation (fibrillation, ThT) (10 mg/mL CPD1, 20 mM phosphate pH 7, 270 mM mannitol): FND; Aggregation (fibrillation, ThT) (10 mg/mL CPD1, 20 mM phosphate pH 7, no added tonicity agent): FND; Aggregation (fibrillation, ThT) (10 mg/mL CPD1, 20 mM phosphate pH 8, 270 mM mannitol): FND; Aggregation (fibrillation, ThT) (10 mg/mL CPD1, 20 mM phosphate pH 8, no added tonicity agent): FND; Amyloid formation / fibrillation (2 and 10 mg/mL CPD1, pH 6): amyloid formation was observed; Amyloid formation / fibrillation (2 and 10 mg/mL CPD1, pH 7 or 8): no fibrillation was observed; Aggregation propensity, mannitol as tonicity agent compared to control (no tonicity agent) (pH range 6-8, 40° C. 4 days): No difference
